Laboratory results from patent US20240117018A1.

Key:
Assay in all cases: cell-based or functional assay
[1] = target: HIV-1 Env of pseudovirus CNE53 (HIV-1)
[2] = target: HIV-1 Env of pseudovirus CNE52 (HIV-1)
[3] = target: HIV-1 Env of pseudovirus RHPA4259.7 (HIV-1)
[4] = target: HIV-1 Env of pseudovirus HIV-16845-2.22 (HIV-1)
[5] = target: HIV-1 Env of pseudovirus Ce1172_H1 (HIV-1)
[6] = target: HIV-1 Env of pseudovirus ZM249M.PL1 (HIV-1)
[7] = target: HIV-1 Env of pseudovirus PVO.4 (HIV-1)
[8] = target: HIV-1 Env of pseudovirus Ce2010_F5 (HIV-1)
[9] = target: HIV-1 Env of pseudovirus WITO4160.33 (HIV-1)
[10] = target: HIV-1 Env of pseudovirus Ce703010054_2A2 (HIV-1)
[11] = target: HIV-1 Env of pseudovirus T250-4 (HIV-1)
[12] = target: HIV-1 Env of pseudovirus Du172.17 (HIV-1)
[13] = target: HIV-1 Env of pseudovirus 246F C1G (HIV-1)
[14] = target: HIV-1 Env of pseudovirus ZM214M.PL15 (HIV-1)
[15] = target: HIV-1 Env of pseudovirus Ce0682_E4 (HIV-1)
[16] = target: HIV-1 Env of pseudovirus 0260.v5.c36 (HIV-1)
[17] = target: HIV-1 Env of pseudovirus 1012_11_TC21_3257 (HIV-1)
[18] = target: HIV-1 Env of pseudovirus Du156.12 (HIV-1)
[19] = target: HIV-1 Env of pseudovirus ZM197M.PB7 (HIV-1)
[20] = target: HIV-1 Env of pseudovirus THRO4156.18 (HIV-1)
[21] = target: HIV-1 Env of pseudovirus 6535.3 (HIV-1)
[22] = target: HIV-1 Env of pseudovirus ZM233M.PB6 (HIV-1)
[23] = target: HIV-1 Env of pseudovirus Q842.d12 (HIV-1)
[24] = target: HIV-1 Env of pseudovirus CAP210.2.00.E8 (HIV-1)
[25] = target: HIV-1 Env of pseudovirus CNE8 (HIV-1)
[26] = target: HIV-1 Env of pseudovirus Du422.1 (HIV-1)
[27] = target: HIV-1 Env of pseudovirus Ce704809221_1B3 (HIV-1)
[28] = target: HIV-1 Env of pseudovirus CNE30 (HIV-1)
[29] = target: HIV-1 Env of pseudovirus CNE20 (HIV-1)
[30] = target: HIV-1 Env of pseudovirus TRJO4551.58 (HIV-1)
[31] = target: HIV-1 Env of pseudovirus 1006_11_C3_1601 (HIV-1)
[32] = target: HIV-1 Env of pseudovirus Ce0393_C3 (HIV-1)
[33] = target: HIV-1 Env of pseudovirus 6240_08_TA5_4622 (HIV-1)
[34] = target: HIV-1 Env of pseudovirus REJO4541.67 (HIV-1)
[35] = target: HIV-1 Env of pseudovirus HIV-001428-2.42 (HIV-1)
[36] = target: HIV-1 Env of pseudovirus 1056_10_TA11_1826 (HIV-1)

PGT151 (antibody) showed a neutralization IC50 [1] of over 50 µg/mL, a neutralization IC80 [1] of over 50 µg/mL and a neutralization IC50 [2] of 0.004 µg/mL. For the same substance, the neutralization IC80 [2] was 0.017 µg/mL, the neutralization IC50 [3] was 0.006 µg/mL and the neutralization IC80 [3] was 0.033 µg/mL. It also gave a neutralization IC50 [4] of over 50 µg/mL, a neutralization IC80 [4] of over 50 µg/mL and a neutralization IC50 [5] of over 50 µg/mL. For the same substance, the neutralization IC80 [5] was over 50 µg/mL, the neutralization IC50 [6] was 0.004 µg/mL and the neutralization IC80 [6] was 0.015 µg/mL. For the same substance, the neutralization IC50 [7] was 0.017 µg/mL, the neutralization IC80 [7] was over 50 µg/mL and the neutralization IC50 [8] was over 50 µg/mL. It also gave a neutralization IC80 [8] of over 50 µg/mL, a neutralization IC50 [9] of 0.002 µg/mL and a neutralization IC80 [9] of 0.021 µg/mL. It also gave a neutralization IC50 [10] of 0.013 µg/mL, a neutralization IC80 [10] of 0.075 µg/mL and a neutralization IC50 [11] of 0.005 µg/mL. For the same substance, the neutralization IC80 [11] was 0.014 µg/mL, the neutralization IC50 [12] was 0.003 µg/mL and the neutralization IC80 [12] was 0.013 µg/mL. The neutralization IC50 [13] was over 50 µg/mL, the neutralization IC80 [13] was over 50 µg/mL and the neutralization IC50 [14] was 0.008 µg/mL. For the same substance, the neutralization IC80 [14] was 0.045 µg/mL, the neutralization IC50 [15] was over 50 µg/mL and the neutralization IC80 [15] was over 50 µg/mL. For the same substance, the neutralization IC50 [16] was 0.427 µg/mL, the neutralization IC80 [16] was over 50 µg/mL and the neutralization IC50 [17] was over 50 µg/mL. For the same substance, the neutralization IC80 [17] was over 50 µg/mL, the neutralization IC50 [18] was 0.005 µg/mL and the neutralization IC80 [18] was 0.023 µg/mL. It also gave a neutralization IC50 [19] of 0.003 µg/mL, a neutralization IC80 [19] of 0.033 µg/mL and a neutralization IC50 [20] of over 50 µg/mL. The neutralization IC80 [20] was over 50 µg/mL, the neutralization IC50 [21] was under 0.001 µg/mL and the neutralization IC80 [21] was 0.012 µg/mL. The neutralization IC50 [22] was 0.027 µg/mL, the neutralization IC80 [22] was 5.16 µg/mL and the neutralization IC50 [23] was 0.001 µg/mL. For the same substance, the neutralization IC80 [23] was 0.014 µg/mL, the neutralization IC50 [24] was 0.01 µg/mL and the neutralization IC80 [24] was 0.208 µg/mL. For the same substance, the IC50 (Titer in TZM.bl cells) [25] was over 50 µg/mL, the IC80 (Titer in TZM.bl cells) [25] was over 50 µg/mL and the neutralization IC50 [26] was 4.6 µg/mL. For the same substance, the neutralization IC80 [26] was over 50 µg/mL, the neutralization IC50 [27] was over 50 µg/mL and the neutralization IC80 [27] was over 50 µg/mL. It also gave a neutralization IC50 [28] of over 50 µg/mL, a neutralization IC80 [28] of over 50 µg/mL and a neutralization IC50 [29] of over 50 µg/mL. The neutralization IC80 [29] was over 50 µg/mL, the neutralization IC50 [30] was 0.496 µg/mL and the neutralization IC80 [30] was 4.22 µg/mL. The neutralization IC50 [31] was 2.89 µg/mL, the neutralization IC80 [31] was over 50 µg/mL and the neutralization IC50 [32] was over 50 µg/mL. It also gave a neutralization IC80 [32] of over 50 µg/mL, a neutralization IC50 [33] of 0.046 µg/mL and a neutralization IC80 [33] of 0.42 µg/mL. It also gave a neutralization IC50 [34] of 0.018 µg/mL, a neutralization IC80 [34] of 0.119 µg/mL and a neutralization IC50 [35] of 0.027 µg/mL. The neutralization IC80 [35] was over 50 µg/mL, the neutralization IC50 [36] was 0.008 µg/mL and the neutralization IC80 [36] was 0.048 µg/mL.
